Laboratory results taken from US20200140538A1 (INSTITUTE FOR BASIC SCIENCE, published 2020).

Experiments:
[1] = target: T1, human interleukin-2 (hIL-2) (human, UniProt P60568 21-153); test: ELISA on plate coated with hIL-2 (5 µg/ml), titrated mAb, detection with anti-mouse IgG HRP or anti-rat IgG HRP
T1 construct: mature; The 133-residue length in the definition corresponds to the mature protein; also called human IL-2

[2] = target: T1, human interleukin-2 (hIL-2); test: SPR, Biacore T100; antibody immobilized on a CM5 chip by amine coupling, hIL-2 flowed as 2-fold dilutions from 100 nM
Description: For detection of hIL-2, […] was used. 900 RU (Rmax=90) of anti-hIL-2 clones were immobilized on a CM5 chip by amine coupling. A 2-fold dilution (100 nM) of hIL-2 was allowed to flow on the chip at a rate of 10 μl/min for 3 minutes, and then dissociation of the hIL-2 was monitored for 10 minutes.

[3] = target: T2, mouse IL-2 (mIL-2) (mouse, UniProt P04351 21-169); test: ELISA on plate coated with mIL-2 (5 µg/ml), titrated mAb, detection with anti-mouse IgG HRP or anti-rat IgG HRP
T2 construct: Coated on the ELISA plate at 5 ug/ml
T2 sequence (looked up): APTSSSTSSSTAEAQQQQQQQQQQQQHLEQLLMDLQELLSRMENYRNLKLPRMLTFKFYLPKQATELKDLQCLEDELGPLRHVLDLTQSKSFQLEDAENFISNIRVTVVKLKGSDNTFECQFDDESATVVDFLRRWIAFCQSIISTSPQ
Description: In vivo mouse models were used to evaluate the therapeutic efficacy of a hIL-2/TCB2 mAb complex. […] First, the splenocytes of BALB/c mice immunized 3-4 times with hIL-2 over several weeks were fused with SP/2 myeloma cells. When the hybridoma colony was visualized, the culture supernatant was subjected to ELISA. 5 μg/ml of hIL-2 or mIL-2 was added to and mixed with PBS, and a total of 50 μl of the mixture was coated on an ELISA plate. Next, 200 μl of 10% FBS was added to the PBS and incubated at room temperature for 30 minutes in order to prevent non-specific binding, and a titrated dose of the monoclonal antibody was incubated for 30 minutes. The binding of the monoclonal antibody to the coated hIL-2 or mIL-2 was detected with anti-mouse IgG HRP or anti-rat IgG HRP. In each step, the plate was washed 3-5 times with 200 μl of PBS. As positive controls, commercially available monoclonal antibodies were used. As a positive control for hIL-2, Mab602 was used, and as positive controls for mIL-2, JES6-1 and S4B6 were used.

[4] = target: T1, human interleukin-2 (hIL-2); test: kinetic affinity for hIL-2, Set 1; method not given
[5] = target: T1, human interleukin-2 (hIL-2); test: kinetic affinity for hIL-2, Set 1; method not given; Set 1
[6] = target: T1, human interleukin-2 (hIL-2); test: kinetic affinity for hIL-2, Set 2; method not given

T1 sequence (P60568 21-153): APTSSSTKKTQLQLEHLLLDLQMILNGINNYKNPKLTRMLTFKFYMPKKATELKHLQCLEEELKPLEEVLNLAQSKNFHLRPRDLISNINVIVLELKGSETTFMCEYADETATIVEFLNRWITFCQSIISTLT

B1: MAB602 (antibody, from another filing, V domains shown)
VH: EVQLQESGPGLVAPSQSLSITCTVSGFSLTNYDISWIRQPPGKGLEWLGVIWTGGGTNYNSGFMSRLSITKDNSKSQVFLKMNSLQTDDTAIYYCVRQGRTPYWGQGTLVTVSA
VL: DIQVTQSPSSLSVSLGDRVTITCKASKDIYNRLAWYQQKPGNAPRLLISGATSLETGVPSRFSGSGSGKDYTLTITSLQTEDVATYYCQQFWGTPYTFGGGTKLEIKR
[1]
  EC50 (read off the curve): 0.04 µg/mL
[2]
  Kd: 0.213 nM
  koff: 0.000948 s⁻¹
  kon: 4.43e+06 M⁻¹ s⁻¹
[3]
  EC50 (read off the curve): 0.03 µg/mL

B2: S4B6 (antibody, V domains shown)
VH: EVQLQESGAELVRPGTSVKLSCKVSGDTITAYYLHFVRQRPGQGLEWIGRIDPEDDSTKYAENFKNKATFTADASSNTAYLRLSSLTSEDTATYFCTTVTFYYSRELRWFAYWGQGTLVTVSS
VL: DIQVTQSPASLSASLEEIVTITCQASQDIGNYLSWYQQKLGKSPQLLIHSATSLADGVPSRFSGSRSGTQYSLKINRLQVEDTGIYYCLQHYSTPYTFGAGTKLELK
[3]
  EC50 (read off the curve): ~0.3 µg/mL

B3: TCB2 monoclonal antibody (mouse TCB2) (antibody, V domains shown)
VH: EVQLQQSGAELARPGASVKLSCKASGYTFTTYWIQWVKQRPGQGLEWIGAIYPGDGDTRYIQNFKGKATLTADKSSSTAYMQLSSLASEDSAVYYCARSLATRGFYAMDYWGQGTSVTVSS
VL: DIVMTQSPASLSMAIGEKVTIRCITSTDIDDDMNWYQQKPGEPPKLLISEGNTLRPGVPSRFSSSGYGTDFVFTIENMLSEDVADYYCLQSDNLPYTFGGGTKLEIK
notes: Mouse hybridoma antibody from BALB/c mice immunized with hIL-2; It was detected with anti-mouse IgG HRP; also called TCB2 mAb; mTCB2
[2]
  Kd: 0.0811 nM
  koff: 0.000419 s⁻¹
  kon: 5.17e+06 M⁻¹ s⁻¹
[3]
  binding result: no binding (tested: 10000 ng/ml)

B4: human chimeric TCB2 (antibody, human IgG2, kappa, V domains shown)
VH: EVQLQQSGAELARPGASVKLSCKASGYTFTTYWIQWVKQRPGQGLEWIGAIYPGDGDTRYIQNFKGKATLTADKSSSTAYMQLSSLASEDSAVYYCARSLATRGFYAMDYWGQGTSVTVSS
VL: DIVMTQSPASLSMAIGEKVTIRCITSTDIDDDMNWYQQKPGEPPKLLISEGNTLRPGVPSRFSSSGYGTDFVFTIENMLSEDVADYYCLQSDNLPYTFGGGTKLEIKR
notes: The Fab region of TCB2 mAb was cloned into an IgG2 expression vector; also called hcTCB2
[4]
  Kd: 0.0717 nM
  koff: 0.00163 s⁻¹
[5]
  kon: 2.27e+07 M⁻¹ s⁻¹
[6]
  Kd: 0.0616 nM
  koff: 0.00141 s⁻¹
  kon: 2.29e+07 M⁻¹ s⁻¹

B5: humanized TCB2 clone VH1+VL2 (antibody, V domains shown)
VH: QVQLVQSGAEVKKPGASVKVSCKASGYTFTTYWIQWVRQAPGQGLEWMGAIYPGDGDTRYIQNFKGRVTMTRDTSTSTVYMELSSLRSEDTAVYYCARSLATRGFYAMDYWGQGTLVTVSS
VL: DIVMTQSPSSLSASVGDRVTIRCITSTDIDDDMNWYQQKPGKAPKLLISEGNTLRPGVPSRFSGSGYGTDFTFTISSLQPEDIADYYCLQSDNLPYTFGGGTKLEIK
notes: Humanized and expressed with human IgG1 Fc; also called VL2+VH1; hnTCB2
[4]
  Kd: 0.104 nM
  koff: 0.00197 s⁻¹
  kon: 1.89e+07 M⁻¹ s⁻¹

B6: humanized TCB2 clone VH2+VL2 (antibody, V domains shown)
VH: QVQLVQSGAEVKKPGASVKLSCKASGYTFTTYWIQWVKQAPGQGLEWIGAIYPGDGDTRYIQNFKGRVTMTADTSTSTVYMELSSLRSEDTAVYYCARSLATRGFYAMDYWGQGTLVTVSS
VL: DIVMTQSPSSLSASVGDRVTIRCITSTDIDDDMNWYQQKPGKAPKLLISEGNTLRPGVPSRFSGSGYGTDFTFTISSLQPEDIADYYCLQSDNLPYTFGGGTKLEIK
notes: Humanized and expressed with human IgG1 Fc; also called VL2+VH2; hnTCB2
[4]
  Kd: 0.275 nM
  koff: 0.00463 s⁻¹
  kon: 1.68e+07 M⁻¹ s⁻¹

B7: humanized TCB2 clone AH03463 (VL03463+VH03463) (antibody, V domains shown)
VH: EVQLVQSGAEVKKPGASVKVSCKASGYTFTTYWIQWVKQAPGQGLEWMGAIYPGDGDTRYIQNFKGRVTMTRDTSTSTVYMELSSLRSEDTAVYYCARSLATRGFYAMDYWGQGTLVTVSS
VL: DIQMTQSPSSLSASVGDRVTITCITSTDIDDDMNWYQQKPGKAPKLLIYEGNTLRPGVPSRFSSSGSGTDFTFTISSLQPEDIATYYCLQSDNLPYTFGGGTKLEIK
notes: Humanized and expressed with human IgG1 Fc; also called hnTCB2
[6]
  Kd: 0.198 nM
  koff: 0.00418 s⁻¹
  kon: 2.11e+07 M⁻¹ s⁻¹
